Article PMC8216272

T1: myoglobin (UniProt P02144 2-154)
T1 sequence: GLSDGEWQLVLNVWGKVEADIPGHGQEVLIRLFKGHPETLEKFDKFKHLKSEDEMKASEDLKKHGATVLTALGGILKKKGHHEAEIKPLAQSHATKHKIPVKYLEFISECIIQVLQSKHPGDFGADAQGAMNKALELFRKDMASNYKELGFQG

B1: N24-06 (structured_DNA)
DNA: ACTAGAACTGATCTACAATTTGGGGGGGTTTTGGGGGGGTTGTTGTTTTCTACATCTCAGCATTCT
B2: N24-07 (with primer sites) (structured_DNA)
DNA: ACTAGAACTGATCTACAATTTGGGTGGGTTTTCTTTGGGTTGGGCTTTTCTACATCTCAGCATTCT
B3: N24-01 (structured_DNA)
DNA: ACTAGAACTGATCTACAATTTAGGCCGGGTGTTGGGTGGGTAGGGTTTTCTACATCTCAGCATTCT
B4: N24-03 (structured_DNA)
DNA: ACTAGAACTGATCTACAATTTGGGTTGGGGGGGTTTTGGGTTTTTTTTTCTACATCTCAGCATTCT
B5: N24-04 (structured_DNA)
DNA: ACTAGAACTGATCTACAATTTGGGGGGGTTTTCTGGGGGGGTTTTTTTTCTACATCTCAGCATTCT

The binders below were run against T1, myoglobin (assay: aptamer blotting).

Q: Does TTTTTTTTTTTTTTTTT (ssDNA) [T17] bind?
A: Result: binds

These binders were tested against T1, myoglobin (assay: absorption spectroscopy).

Q: Does GGGTGGGTTTTCTTTGGGTTGGGC (structured_DNA) [N24-07 core] bind?
A: Result: binds

What follows are binders tested against T1, myoglobin (assay: SPR).

Q: For GGGCGGGTTGGGCTGGG (structured_DNA) [PEA3-01], which Kd is on record?
A: Its Kd is 5.8 nM.

Target: T1, myoglobin
Assay: aptamer blotting
Remark: another data set of the same source

Q: Does B1 bind?
A: Result: binds

Q: Does B2 bind?
A: Result: binds

Q: Does B3 bind?
A: Result: binds

Q: Does B4 bind?
A: Result: binds

Q: Does B5 bind?
A: Result: binds

Target: T1, myoglobin
Assay: aptamer blotting
Remark: another data set of the same source

Q: Does GGGCCGGGAGGGTGCAGGG (structured_DNA) [Annexin II-PQS] bind?
A: Result: binds

Q: Does GGGATAGGGTTGGGCACTCACAGCTGAATGGG (structured_DNA) [PSA-PQS2] bind?
A: Result: binds

Q: Does GGGTGGGGGTGGGTTTCTTGGGGTGTAAAGTGGG (structured_DNA) [HER2-PQS3] bind?
A: Result: binds

Q: Does GGGAAGGAGGGAGGAAGGGAGGGAGGG (structured_DNA) [aFGF-PQS20] bind?
A: Result: binds

Target: T1, myoglobin
Assay: aptamer blotting
Remark: another data set of the same source

Q: Does GGGCCGGGTTGGGTGTAGAGTGGG (structured_DNA) [PEA1-02] bind?
A: Result: binds

Q: Does GGGTGGGAAGGGTTGGG (structured_DNA) [PEA1-06] bind?
A: Result: binds

Q: Does GGGTGGGTTTCTTGGGAGGG (structured_DNA) [PEA1-11] bind?
A: Result: binds

Q: Does GGGTGGGAGGGAGGG (structured_DNA) [PEA1-13] bind?
A: Result: binds

Q: Does GGGAAGGGTTGGGAGGG (structured_DNA) [PEA1-16] bind?
A: Result: binds

Q: Does GGGCCGGGAGGGAGGG (structured_DNA) [PEA1-19] bind?
A: Result: binds

Q: Does GGGTGGGTTGGGAGGG (structured_DNA) [PEA1-20] bind?
A: Result: binds
